Here are results for one substance from paper PMC10837352.

The target in this experiment is N‐terminal TadA‐8e (split site R74) fused to nMagHigh1 (UniProt P68398).

Consider “pMag fused to C‐terminal TadA‐8e (split site R74) and nCas9 (from UniProt P68398 75-167)”, for which the adenine base editing at the ABES4 and ABES6 targets in E. coli DH10B, level 2‐BLABE (nMagHigh1‐pMag), in the absence of blue light, Sanger sequencing came out at 3%; the adenine base editing at the ABES4 and ABES6 targets in E. coli DH10B, level 2‐BLABE (nMagHigh1‐pMag), in the presence of blue light (10 mW cm^−2, 6 h), Sanger sequencing was found to be 90%.
